According to IntAct's records for PubMed 17679699:

B1: Catenin beta-1 (Homo sapiens), P35222 (parent)
chain: MATQADLMELDMAMEPDRKAAVSHWQQQSYLDSGIHSGATTTAPSLSGKGNPEEEDVDTSQVLYEWEQGFSQSFTQEQVADIDGQYAMTRAQRVRAAMFPETLDEGMQIPSTQFDAAHPTNVQRLAEPSQMLKHAVVNLINYQDDAELATRAIPELTKLLNDEDQVVVNKAAVMVHQLSKKEASRHAIMRSPQMVSAIVRTMQNTNDVETARCTAGTLHNLSHHREGLLAIFKSGGIPALVKMLGSPVDSVLFYAITTLHNLLLHQEGAKMAVRLAGGLQKMVALLNKTNVKFLAITTDCLQILAYGNQESKLIILASGGPQALVNIMRTYTYEKLLWTTSRVLKVLSVCSSNKPAIVEAGGMQALGLHLTDPSQRLVQNCLWTLRNLSDAATKQEGMEGLLGTLVQLLGSDDINVVTCAAGILSNLTCNNYKNKMMVCQVGGIEALVRTVLRAGDREDITEPAICALRHLTSRHQEAEMAQNAVRLHYGLPVVVKLLHPPSHWPLIKATVGLIRNLALCPANHAPLREQGAIPRLVQLLVRAHQDTQRRTSMGGTQQQFVEGVRMEEIVEGCTGALHILARDVHNRIVIRGLNTIPLFVQLLYSPIENIQRVAAGVLCELAQDKEAAEAIEAEGATAPLTELLHSRNEGVATYAAAVLFRMSEDKPQDYKKRLSVELTSSLFRTEPMAWNETADLGLDIGAQGEPLGYRQDDPSYRSFHSGGYGQDALGMDPMMEHEMGGHHPGADYPVDGLPDLGHAQDLMDGLPPGDSNQLAWFDTDL
partner: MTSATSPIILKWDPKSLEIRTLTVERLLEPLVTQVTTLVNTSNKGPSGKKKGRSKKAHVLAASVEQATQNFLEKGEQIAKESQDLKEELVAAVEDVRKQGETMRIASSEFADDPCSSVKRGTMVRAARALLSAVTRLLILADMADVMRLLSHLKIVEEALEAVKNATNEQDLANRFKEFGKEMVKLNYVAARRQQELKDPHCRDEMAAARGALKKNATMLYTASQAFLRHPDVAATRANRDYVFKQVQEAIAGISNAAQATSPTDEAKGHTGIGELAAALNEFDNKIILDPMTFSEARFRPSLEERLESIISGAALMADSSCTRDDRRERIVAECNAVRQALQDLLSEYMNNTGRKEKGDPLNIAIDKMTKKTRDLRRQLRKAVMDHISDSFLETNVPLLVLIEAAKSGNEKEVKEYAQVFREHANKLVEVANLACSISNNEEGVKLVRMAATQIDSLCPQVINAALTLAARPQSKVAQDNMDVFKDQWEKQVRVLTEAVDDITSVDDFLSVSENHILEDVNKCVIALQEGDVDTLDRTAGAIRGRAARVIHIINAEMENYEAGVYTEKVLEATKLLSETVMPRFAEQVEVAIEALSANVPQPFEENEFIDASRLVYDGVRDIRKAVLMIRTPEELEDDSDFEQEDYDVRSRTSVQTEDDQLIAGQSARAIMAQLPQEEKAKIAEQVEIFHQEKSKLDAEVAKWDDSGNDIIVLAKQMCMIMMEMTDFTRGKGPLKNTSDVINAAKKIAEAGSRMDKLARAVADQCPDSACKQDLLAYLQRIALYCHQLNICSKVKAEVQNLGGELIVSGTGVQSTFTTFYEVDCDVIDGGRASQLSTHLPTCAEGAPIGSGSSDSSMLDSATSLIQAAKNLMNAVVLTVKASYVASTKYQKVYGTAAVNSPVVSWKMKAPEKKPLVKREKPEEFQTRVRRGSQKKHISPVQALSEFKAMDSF

Variants of: B1
Details: with ctna2_human CTNNA2, P26232

**Q.** For L132A, which “effect of a mutation on the interaction” value is on record?
**A.** disrupting interaction strength
